Test results as given in US11833164B2, “Methods of treating Fabry disease in patients having a mutation in the GLA gene” (Amicus Therapeutics, Inc., priority 2019, dated 2023).

Tested on: mutant form of α-Gal A expressed in HEK-293 cells
Assay: HEK assay (GLP HEK / Migalastat Amenability Assay): α-Gal A activity in lysates of transiently transfected HEK-293 cells incubated with or without 10 μM migalastat
Assay type: cell-based, human
Conditions: for Absolute increase (% WT) / Relative increase: 10 μM migalastat versus baseline; for Baseline α-Gal A activity (% WT): absence of migalastat; for Baseline α-Gal A activity (% WT) / 10 μM migalastat α-Gal A activity (% WT): percentage of baseline wild-type α-Gal A activity; for Baseline α-Gal A activity (% WT) / Baseline α-Gal A activity / 10 μM migalastat α-Gal A activity / 10 μM migalastat α-Gal A activity (% WT): mean ± SEM; for Baseline α-Gal A activity / 10 μM migalastat α-Gal A activity: lysates of HEK-293 cells transiently transfected with the mutant form; for Baseline α-Gal A activity: incubated 5 days in absence of migalastat; for 10 μM migalastat α-Gal A activity: incubated 5 days with 10 μM migalastat; for 10 μM migalastat α-Gal A activity (% WT): with 10 μM migalastat, 5 days
In short: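 HEK-293 cells transiently transfected with mutant α-Gal A and incubated with or without 10 μM migalastat; lysate activity given as nmol free 4-MU released per mg protein per hour. Values are mean±SEM.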

B1: A370P (protein)
chain: MQLRNPELHLGCALALRFLALVSWDIPGARALDNGLARTPTMGWLHWERFMCNLDCQEEPDSCISEKLFMEMAELMVSEGWKDAGYEYLCIDDCWMAPQRDSEGRLQADPQRFPHGIRQLANYVHSKGLKLGIYADVGNKTCAGFPGSFGYYDIDAQTFADWGVDLLKFDGCYCDSLENLADGYKHMSLALNRTGRSIVYSCEWPLYMWPFQKPNYTEIRQYCNHWRNFADIDDSWKSIKSILDWTSFNQERIVDVAGPGGWNDPDMLVIGNFGLSWNQQVTQMALWAIMAAPLFMSNDLRHISPQAKALLQDKDVIAINQDPLGKQGYQLRQGDNFEVWERPLSGLAWAVAMINRQEIGGPRSYTIAVPSLGKGVACNPACFITQLLPVKRKLGFYEWTSRLRSHINPTGTVLLQLENTMQMSLKDLL
Which results are given for B1?
Absolute increase (% WT): 16.9 % WT; Relative increase: 1.5; Baseline α-Gal A activity (% WT): 33.9 ± 2.8 % WT; Baseline α-Gal A activity: 10431 ± 975 nmol/mg/h; 10 μM migalastat α-Gal A activity: 15618 ± 1776 nmol/mg/h; 10 μM migalastat α-Gal A activity (% WT): 50.7 ± 5.4 % WT

B2: A370V (protein)
chain: MQLRNPELHLGCALALRFLALVSWDIPGARALDNGLARTPTMGWLHWERFMCNLDCQEEPDSCISEKLFMEMAELMVSEGWKDAGYEYLCIDDCWMAPQRDSEGRLQADPQRFPHGIRQLANYVHSKGLKLGIYADVGNKTCAGFPGSFGYYDIDAQTFADWGVDLLKFDGCYCDSLENLADGYKHMSLALNRTGRSIVYSCEWPLYMWPFQKPNYTEIRQYCNHWRNFADIDDSWKSIKSILDWTSFNQERIVDVAGPGGWNDPDMLVIGNFGLSWNQQVTQMALWAIMAAPLFMSNDLRHISPQAKALLQDKDVIAINQDPLGKQGYQLRQGDNFEVWERPLSGLAWAVAMINRQEIGGPRSYTIAVVSLGKGVACNPACFITQLLPVKRKLGFYEWTSRLRSHINPTGTVLLQLENTMQMSLKDLL
What does the source list for B2?
Absolute increase (% WT): 20.6 % WT; Relative increase: 1.5; Baseline α-Gal A activity (% WT): 40.1 ± 3.1 % WT; Baseline α-Gal A activity: 15754 ± 1222 nmol/mg/h; 10 μM migalastat α-Gal A activity: 24151 ± 1591 nmol/mg/h; 10 μM migalastat α-Gal A activity (% WT): 60.7 ± 3.5 % WT

B3: S371C (protein)
chain: MQLRNPELHLGCALALRFLALVSWDIPGARALDNGLARTPTMGWLHWERFMCNLDCQEEPDSCISEKLFMEMAELMVSEGWKDAGYEYLCIDDCWMAPQRDSEGRLQADPQRFPHGIRQLANYVHSKGLKLGIYADVGNKTCAGFPGSFGYYDIDAQTFADWGVDLLKFDGCYCDSLENLADGYKHMSLALNRTGRSIVYSCEWPLYMWPFQKPNYTEIRQYCNHWRNFADIDDSWKSIKSILDWTSFNQERIVDVAGPGGWNDPDMLVIGNFGLSWNQQVTQMALWAIMAAPLFMSNDLRHISPQAKALLQDKDVIAINQDPLGKQGYQLRQGDNFEVWERPLSGLAWAVAMINRQEIGGPRSYTIAVACLGKGVACNPACFITQLLPVKRKLGFYEWTSRLRSHINPTGTVLLQLENTMQMSLKDLL
For B3, which “Absolute increase (% WT)” value is on record?
Its value is 11.1 % WT.

And the Relative increase?
Its Relative increase is 1.4.

And the “Baseline α-Gal A activity (% WT)” value?
Its value is 23.5 ± 1.3 % WT.

And the “Baseline α-Gal A activity” value?
Its value is 10189 ± 1078 nmol/mg/h.

What about the “10 μM migalastat α-Gal A activity” value of the same molecule?
Its value is 14546 ± 1141 nmol/mg/h.

What about the “10 μM migalastat α-Gal A activity (% WT)” value of the same molecule?
Its value is 34.7 ± 1.6 % WT.

B4: G373C (protein)
chain: MQLRNPELHLGCALALRFLALVSWDIPGARALDNGLARTPTMGWLHWERFMCNLDCQEEPDSCISEKLFMEMAELMVSEGWKDAGYEYLCIDDCWMAPQRDSEGRLQADPQRFPHGIRQLANYVHSKGLKLGIYADVGNKTCAGFPGSFGYYDIDAQTFADWGVDLLKFDGCYCDSLENLADGYKHMSLALNRTGRSIVYSCEWPLYMWPFQKPNYTEIRQYCNHWRNFADIDDSWKSIKSILDWTSFNQERIVDVAGPGGWNDPDMLVIGNFGLSWNQQVTQMALWAIMAAPLFMSNDLRHISPQAKALLQDKDVIAINQDPLGKQGYQLRQGDNFEVWERPLSGLAWAVAMINRQEIGGPRSYTIAVASLCKGVACNPACFITQLLPVKRKLGFYEWTSRLRSHINPTGTVLLQLENTMQMSLKDLL
Which results are given for B4?
Absolute increase (% WT): 8.7 % WT; Relative increase: 3.2; Baseline α-Gal A activity (% WT): 4.3 ± 0.2 % WT; Baseline α-Gal A activity: 1744 ± 92 nmol/mg/h; 10 μM migalastat α-Gal A activity: 5543 ± 547 nmol/mg/h; 10 μM migalastat α-Gal A activity (% WT): 13 ± 0.9 % WT

B5: K374E (protein)
chain: MQLRNPELHLGCALALRFLALVSWDIPGARALDNGLARTPTMGWLHWERFMCNLDCQEEPDSCISEKLFMEMAELMVSEGWKDAGYEYLCIDDCWMAPQRDSEGRLQADPQRFPHGIRQLANYVHSKGLKLGIYADVGNKTCAGFPGSFGYYDIDAQTFADWGVDLLKFDGCYCDSLENLADGYKHMSLALNRTGRSIVYSCEWPLYMWPFQKPNYTEIRQYCNHWRNFADIDDSWKSIKSILDWTSFNQERIVDVAGPGGWNDPDMLVIGNFGLSWNQQVTQMALWAIMAAPLFMSNDLRHISPQAKALLQDKDVIAINQDPLGKQGYQLRQGDNFEVWERPLSGLAWAVAMINRQEIGGPRSYTIAVASLGEGVACNPACFITQLLPVKRKLGFYEWTSRLRSHINPTGTVLLQLENTMQMSLKDLL
Which results are given for B5?
Absolute increase (% WT): 14.1 % WT; Relative increase: 1.3; Baseline α-Gal A activity (% WT): 49.9 ± 3.6 % WT; Baseline α-Gal A activity: 19699 ± 1718 nmol/mg/h; 10 μM migalastat α-Gal A activity: 24879 ± 2423 nmol/mg/h; 10 μM migalastat α-Gal A activity (% WT): 64 ± 5.7 % WT

B6: S371T (protein)
chain: MQLRNPELHLGCALALRFLALVSWDIPGARALDNGLARTPTMGWLHWERFMCNLDCQEEPDSCISEKLFMEMAELMVSEGWKDAGYEYLCIDDCWMAPQRDSEGRLQADPQRFPHGIRQLANYVHSKGLKLGIYADVGNKTCAGFPGSFGYYDIDAQTFADWGVDLLKFDGCYCDSLENLADGYKHMSLALNRTGRSIVYSCEWPLYMWPFQKPNYTEIRQYCNHWRNFADIDDSWKSIKSILDWTSFNQERIVDVAGPGGWNDPDMLVIGNFGLSWNQQVTQMALWAIMAAPLFMSNDLRHISPQAKALLQDKDVIAINQDPLGKQGYQLRQGDNFEVWERPLSGLAWAVAMINRQEIGGPRSYTIAVATLGKGVACNPACFITQLLPVKRKLGFYEWTSRLRSHINPTGTVLLQLENTMQMSLKDLL
How did the “Absolute increase (% WT)” value turn out when B6 was run?
Its value is 26.1 % WT.

What about the Relative increase of the same molecule?
Its Relative increase is 1.3.

What about the “Baseline α-Gal A activity (% WT)” value of the same molecule?
Its value is 65 ± 3.3 % WT.

What about the “Baseline α-Gal A activity” value of the same molecule?
The value was 27962 ± 2785 nmol/mg/h.

And the “10 μM migalastat α-Gal A activity” value?
Its value is 37065 ± 2351 nmol/mg/h.

And the “10 μM migalastat α-Gal A activity (% WT)” value?
The value was 91.1 ± 5 % WT.

B7: A370T (protein)
chain: MQLRNPELHLGCALALRFLALVSWDIPGARALDNGLARTPTMGWLHWERFMCNLDCQEEPDSCISEKLFMEMAELMVSEGWKDAGYEYLCIDDCWMAPQRDSEGRLQADPQRFPHGIRQLANYVHSKGLKLGIYADVGNKTCAGFPGSFGYYDIDAQTFADWGVDLLKFDGCYCDSLENLADGYKHMSLALNRTGRSIVYSCEWPLYMWPFQKPNYTEIRQYCNHWRNFADIDDSWKSIKSILDWTSFNQERIVDVAGPGGWNDPDMLVIGNFGLSWNQQVTQMALWAIMAAPLFMSNDLRHISPQAKALLQDKDVIAINQDPLGKQGYQLRQGDNFEVWERPLSGLAWAVAMINRQEIGGPRSYTIAVTSLGKGVACNPACFITQLLPVKRKLGFYEWTSRLRSHINPTGTVLLQLENTMQMSLKDLL
B7 was tested. Which “Absolute increase (% WT)” value did it give?
Its value is 17.6 % WT.

And the Relative increase?
The Relative increase was 1.2.

What about the “Baseline α-Gal A activity (% WT)” value of the same molecule?
The value was 79.9 ± 4.3 % WT.

What about the “Baseline α-Gal A activity” value of the same molecule?
The value was 25024 ± 1951 nmol/mg/h.

What about the “10 μM migalastat α-Gal A activity” value of the same molecule?
The value was 30276 ± 2364 nmol/mg/h.

And the “10 μM migalastat α-Gal A activity (% WT)” value?
The value was 97.5 ± 6.1 % WT.

B8: G373A (protein)
chain: MQLRNPELHLGCALALRFLALVSWDIPGARALDNGLARTPTMGWLHWERFMCNLDCQEEPDSCISEKLFMEMAELMVSEGWKDAGYEYLCIDDCWMAPQRDSEGRLQADPQRFPHGIRQLANYVHSKGLKLGIYADVGNKTCAGFPGSFGYYDIDAQTFADWGVDLLKFDGCYCDSLENLADGYKHMSLALNRTGRSIVYSCEWPLYMWPFQKPNYTEIRQYCNHWRNFADIDDSWKSIKSILDWTSFNQERIVDVAGPGGWNDPDMLVIGNFGLSWNQQVTQMALWAIMAAPLFMSNDLRHISPQAKALLQDKDVIAINQDPLGKQGYQLRQGDNFEVWERPLSGLAWAVAMINRQEIGGPRSYTIAVASLAKGVACNPACFITQLLPVKRKLGFYEWTSRLRSHINPTGTVLLQLENTMQMSLKDLL
For B8, which “Absolute increase (% WT)” value is on record?
The value was 12.4 % WT.

What about the Relative increase of the same molecule?
Its Relative increase is 1.3.

And the “Baseline α-Gal A activity (% WT)” value?
The value was 40.8 ± 1.5 % WT.

And the “Baseline α-Gal A activity” value?
Its value is 14426 ± 630 nmol/mg/h.

What about the “10 μM migalastat α-Gal A activity” value of the same molecule?
Its value is 18622 ± 1289 nmol/mg/h.

What about the “10 μM migalastat α-Gal A activity (% WT)” value of the same molecule?
Its value is 53.2 ± 3.7 % WT.
